Results taken from paper PMC6353898 (2019).

Target: EGFR recombinant human protein (human, UniProt P00533 25-645)
Assay: SPR

Binder: AEYDFYGPGNEGSW (designed binder) [Pep24]
- Kd: 7.2 µM
